Assays:
CLL-1 bearing a His Tag [1] = molecular target: T1, CLL-1 bearing a His Tag; experiment: competitive ELISA on His-tagged CLL-1; binding of mouse M31 is detected, the named antibody is the competitor
T1 construct: also called CLL1 His Tag antigen; His Tag antigen; not shown: The exact limits of the construct are not described
T1 chain: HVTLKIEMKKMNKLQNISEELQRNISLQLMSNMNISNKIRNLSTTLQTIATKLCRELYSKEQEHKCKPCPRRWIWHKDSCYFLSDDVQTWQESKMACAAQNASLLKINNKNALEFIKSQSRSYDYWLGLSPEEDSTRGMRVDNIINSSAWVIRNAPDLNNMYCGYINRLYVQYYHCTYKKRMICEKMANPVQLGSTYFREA
Procedure: FIG. 9 is an ELISA analysis of competitive binding affinity of ChM31 (SEQ ID NO:14/SEQ ID NO:10), HuM31-VH1/VL2 (SEQ ID NO:15/SEQ ID NO:12), HuM31-VH2/VL2 (SEQ ID NO:16/SEQ ID NO:12), HuM31-VH3/VL2 (SEQ ID NO:17/SEQ ID NO:12), and HuM31-VH4/VL2 (SEQ ID NO:18/SEQ ID NO:12), antibodies to CLL-1 bearing a His Tag. Binding of mouse M31 antibody in the presence of ChM31, HuM31-VH2/VL2, HuM31-VH3/VL2 or HuM31-VH4/VL2 antibody, starting at 25 μg/ml and serial 3-fold dilutions, was analyzed. Absorbance values (Y-axis) are plotted at each antibody concentration tested (X-axis) in the figure. IC₅₀ values were calculated using GraphPad Prism.
Referring to FIG. 9, binding of mouse M31 antibody in the presence of ChM31, HuM31-VH2/VL2, HuM31-VH3/VL2 or HuM31-VH4/VL2 antibody, starting at 25 μg/mL and serial 3-fold dilutions, was analyzed. Absorbance values (Y-axis) are plotted at each antibody concentration tested (X-axis) in the figure. IC50 values were calculated using GraphPad Prism.

[2] = molecular target: T2, C type Lectin Like molecule 1 (CLL-1), human, on cells (human, UniProt Q5QGZ9 1-265); experiment: competition by flow cytometry on 293-CLL1 cells; Alexa488-labelled ChiM31 is displaced by the unlabelled antibody (half-maximal displacement, headed EC50 on the sheet)
T2 construct: whole, on cells; also called CLEC12A; DCAL-2
T2 sequence (looked up): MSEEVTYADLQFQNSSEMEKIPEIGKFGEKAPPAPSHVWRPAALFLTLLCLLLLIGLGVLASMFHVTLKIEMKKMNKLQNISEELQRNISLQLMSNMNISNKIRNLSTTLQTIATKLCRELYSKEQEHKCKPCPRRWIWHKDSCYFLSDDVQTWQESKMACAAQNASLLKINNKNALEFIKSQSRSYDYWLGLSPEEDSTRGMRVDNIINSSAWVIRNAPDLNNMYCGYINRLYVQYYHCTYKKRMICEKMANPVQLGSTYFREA
Procedure: FIG. 10 is an […] of competitive binding to 293CLL1 cells. ChiM31 was labelled with Alex488. Binding of ChiM31-Alex488 antibody in the presence of ChiM31, HuM31 and mouse M31 starting at 30 μg/ml and serial 3-fold dilutions, was analyzed. Absorbance values MFI (Y-axis) are plotted at each antibody concentration tested (X-axis) in the figure. IC₅₀ values were calculated using GraphPad Prism.
Referring to FIG. 10, ChiM31 was labeled with Alexa488. 293-CLL1 cells were pre-incubated with 1 μg of labeled ChiM31, and then completed with various amount of ChiM31 and HuM31. FACS were performed and data were analyzed and EC50 were calculated.

CLL-1 bearing a His Tag [3] = molecular target: T1, CLL-1 bearing a His Tag; experiment: ELISA on His-tagged CLL-1, purified antibody
Procedure: FIG. 8 is an ELISA analysis of the binding of purified ChM31 (SEQ ID NO:14/SEQ ID NO:10), HuM31-VH2/VL2 (SEQ ID NO:16/SEQ ID NO:12), HuM31-VH3/VL2 (SEQ ID NO:17/SEQ ID NO:12), and HuM31-VH4/VL2 (SEQ ID NO:18/SEQ ID NO:12), antibodies to CLL-1 bearing a His Tag. Each antibody was tested at various concentrations, starting at 1 μg/ml and serial 2-fold dilutions. Absorbance values (Y-axis) are plotted at each antibody concentration tested (X-axis) in the figure.
Referring to FIG. 8, each antibody was tested at various concentrations, starting at 1 μg/mL and serial 2-fold dilutions. Absorbance values (Y-axis) are plotted at each antibody concentration tested (X-axis) in the figure.

[4] = molecular target: T2, C type Lectin Like molecule 1 (CLL-1), …; experiment: flow cytometry on HL-60 cells (express CLL-1), MFI of C6-CLT-D202 ADC over MFI of control C0-CLT-D202 ADC
[5] = molecular target: T2, C type Lectin Like molecule 1 (CLL-1), …; experiment: flow cytometry on SHI-1 cells, MFI of C6-CLT-D202 ADC over MFI of control C0-CLT-D202 ADC; CLL-1 expression of this line not stated
[6] = molecular target: T2, C type Lectin Like molecule 1 (CLL-1), …; experiment: flow cytometry on AML5 cells (express CLL-1), MFI of C6-CLT-D202 ADC over MFI of control C0-CLT-D202 ADC
[7] = molecular target: T2, C type Lectin Like molecule 1 (CLL-1), …; experiment: flow cytometry on KG-1a cells, MFI of C6-CLT-D202 ADC over MFI of control C0-CLT-D202 ADC; CLL-1 expression of this line not stated
[8] = molecular target: T2, C type Lectin Like molecule 1 (CLL-1), …; experiment: flow cytometry on PL21 cells, MFI of C6-CLT-D202 ADC over MFI of control C0-CLT-D202 ADC; CLL-1 expression of this line not stated
[9] = molecular target: T2, C type Lectin Like molecule 1 (CLL-1), …; experiment: cell-based or functional assay
[10] = molecular target: T2, C type Lectin Like molecule 1 (CLL-1), …; experiment: flow cytometry on HEL92.1.7-CLL1 cells, MFI of C6-CLT-D202 ADC over MFI of control C0-CLT-D202 ADC
[11] = molecular target: T2, C type Lectin Like molecule 1 (CLL-1), …; experiment: cell-based or functional assay; remark: listed apart in the source
[12] = molecular target: T2, C type Lectin Like molecule 1 (CLL-1), …; experiment: flow cytometry on HNT-34 cells, MFI of C6-CLT-D202 ADC over MFI of control C0-CLT-D202 ADC; CLL-1 expression of this line not stated
[13] = molecular target: T2, C type Lectin Like molecule 1 (CLL-1), …; experiment: cell-based or functional assay; remark: listed apart in the source
[14] = molecular target: T2, C type Lectin Like molecule 1 (CLL-1), …; experiment: flow cytometry on AML2 cells, MFI of C6-CLT-D202 ADC over MFI of control C0-CLT-D202 ADC; CLL-1 expression of this line not stated
[15] = molecular target: T2, C type Lectin Like molecule 1 (CLL-1), …; experiment: flow cytometry on U937 cells (listed as CLL-1 expressing in paragraph 160), MFI of C6-CLT-D202 ADC over MFI of control C0-CLT-D202 ADC
[16] = molecular target: T2, C type Lectin Like molecule 1 (CLL-1), …; experiment: flow cytometry on EOL-1 cells, MFI of C6-CLT-D202 ADC over MFI of control C0-CLT-D202 ADC; CLL-1 expression of this line not stated

B1: ChM31 (antibody, V domains shown)
VH: EVQLQQSGPELVKPGASVKMSCKASGYTFTSYVMHWVKQKPGQGLEWIGYINPYNDGTKYNEKFKGKATLTSDTSSSTAYMELNSLTSEDSAVYFCARPIYFDNDYFDYWGQGTTLKVSS
VL: TIVLTQSPASLAVSLGQRATISCRASESVDSYGNSFMHWYQQKPGQPPKLLIYLASNLESGVPARFSGSGSRTDFTLTIDPVEADDAATYYCQQNNYDPWTFGGGTKLEIK
notes: chimeric M31; also called Chi M31; ChiM31
For B1, which “IC50 (read off the curve)” value (CLL-1 bearing a His Tag [1]) is on record?
The value was roughly 0.6 µg/mL.

And the EC50 [2]?
The EC50 was 0.71 µg/mL.

What about the “EC50 (read off the curve)” value (CLL-1 bearing a His Tag [3]) of the same binder?
The value was roughly 0.05 µg/mL.

B2: HuM31-VH4/VL2 (antibody, V domains shown)
VH: QVQLVQSGAEVKKPGASVKVSCKASGYTFTSYVMHWVRQAPGRRLEWIGYINPYNDGTKYNEKFKGRVTITSDTSASTAYMELSSLRSEDTAVYYCARPIYFDNDYFDYWGQGTLVTVSS
VL: DIVMTQSPDSLAVSLGERATINCRASESVDSYGNSFMHWYQQKPGQPPKLLIYLASNLESGVPARFSGSGSGTDFTLTIDPVEADDAATYYCQQNNYDPWTFGGGTKLEIK
notes: humanized M31 variant
Which “EC50 (read off the curve)” value (CLL-1 bearing a His Tag [3]) does the source give for B2 here?
Its value is roughly 0.04 µg/mL.

B3: HuM31-VH3/VL2 (antibody, V domains shown)
VH: QVQLVQSGAEVKKPGASVKVSCKASGYTFTSYVMHWVRQAPGRRLEWIGYINPYNDGTKYNEKFKGKATITSDTSASTAYMELSSLRSEDTAVYYCARPIYFDNDYFDYWGQGTLVTVSS
VL: DIVMTQSPDSLAVSLGERATINCRASESVDSYGNSFMHWYQQKPGQPPKLLIYLASNLESGVPARFSGSGSGTDFTLTIDPVEADDAATYYCQQNNYDPWTFGGGTKLEIK
notes: humanized M31 variant
How did the “EC50 (read off the curve)” value (CLL-1 bearing a His Tag [3]) turn out when B3 was run?
The value was roughly 0.04 µg/mL.

B4: HuM31-VH2/VL2 (antibody, V domains shown)
VH: QVQLVQSGAEVKKPGASVKVSCKASGYTFTSYVMHWVRQAPGQRLEWIGYINPYNDGTKYNEKFKGRATLTSDTSTSTAYMELRSLRSDDTAVYYCARPIYFDNDYFDYWGQGTTVTVSS
VL: DIVMTQSPDSLAVSLGERATINCRASESVDSYGNSFMHWYQQKPGQPPKLLIYLASNLESGVPARFSGSGSGTDFTLTIDPVEADDAATYYCQQNNYDPWTFGGGTKLEIK
notes: humanized M31 variant
How did the “EC50 (read off the curve)” value (CLL-1 bearing a His Tag [3]) turn out when B4 was run?
The value was roughly 0.06 µg/mL.

B5: Hu M31 (antibody, V domains shown)
VH: QVQLVQSGAEVKKPGASVKVSCKASGYTFTSYVMHWVRQAPGQRLEWIGYINPYNDGTKYNEKFKGKATITSDTSASTAYMELSSLRSEDTAVYYCARPIYFDNDYFDYWGQGTLVTVSS
VL: DIVMTQSPDSLAVSLGERATINCRASESVDSYGNSFMHWYQQKPGQPPKLLIYLASNLESGVPDRFSGSGSGTDFTLTISSLQAEDVAVYYCQQNNYDPWTFGGGTKVEIK
Which EC50 [2] does the source give for B5 here?
Its EC50 is 1.77 µg/mL.

B6: C6-CLT-D202 ADC (humanized, cys-substituted at position 239 anti-CLL1 antibody C6-S239C-CYSMAB conjugated to CLT-D202) (antibody, V domains shown)
VH: EVQLVQSGAEVKKPGASVKMSCKASGYTFTSYFIHWVRQAPGQGLEWIGFINPYNDGSKYAQKFQGRATLTSDKSTSTVYMELSSLRSEDTAVYYCTRDDGYYGYAMDYWGQGTLVTVSS
VL: DIQMTQSPSSLSASVGDRVTLTCRATQELSGYLSWLQQKPGKAIKRLIYAASTLDSGVPSRFSGNRAGTDYTLTISSLQPEDFATYYCLQYAIYPYTFGQGTKLEIK
modifications: S239C in the heavy chain constant region (constant region sequence not given); CLT-D202 drug-linker conjugated to the engineered Cys 239; drug to antibody ratio 1.7
notes: Only variable regions are printed; it carries S239C; also called C6-D202; CLL1-ADC
How did the “relative MFI C6/C0” value [4] turn out when B6 was run?
The value was 20 ratio.

And the “relative MFI C6/C0” value [5]?
Its value is 1.4 ratio.

And the “relative MFI C6/C0” value [6]?
The value was 15 ratio.

And the “relative MFI C6/C0” value [7]?
Its value is 1.3 ratio.

What about the “relative MFI C6/C0” value [8] of the same binder?
Its value is 14.7 ratio.

What about the “IC50, cytotoxicity on AML2 cells” value [9] of the same binder?
The value was 0.003 µg/mL.

And the “IC50, cytotoxicity on AML5 cells” value [9]?
Its value is 0.013 µg/mL.

And the “IC50, cytotoxicity on EOL-1 cells” value [9]?
The value was 0.0137 µg/mL.

What about the “IC50, cytotoxicity on HEL92.1.7-CLL1 cells” value [9] of the same binder?
The value was 0.017 µg/mL.

And the “IC50, cytotoxicity on HL-60 cells” value [9]?
The value was 0.011 µg/mL.

And the “IC50, cytotoxicity on HNT-34 cells” value [9]?
The value was 3.5 µg/mL.

What about the “IC50, cytotoxicity on KG-1a cells” value [9] of the same binder?
The value was 82.8 µg/mL.

And the “IC50, cytotoxicity on PL21 cells” value [9]?
Its value is 0.199 µg/mL.

What about the “IC50, cytotoxicity on SHI-1 cells” value [9] of the same binder?
The value was 5.67 µg/mL.

And the “IC50, cytotoxicity on U937 cells” value [9]?
The value was 11.7 µg/mL.

And the “relative MFI C6/C0” value [10]?
The value was 26.1 ratio.

What about the “IC50, killing of proliferating AML-5 cells” value [11] of the same binder?
Its value is 0.03 µg/mL.

And the “IC50, killing of quiescent AML-5 cells” value [11]?
Its value is 0.02 µg/mL.

And the “cell killing of HL-60 cells, relative to the control ADC” value [11]?
Its value is greater than 500 fold.

What about the “decrease in IC50, TF1-CLL1 against TF1 cells” value [11] of the same binder?
The value was roughly 1000 fold.

And the “relative MFI C6/C0” value [12]?
Its value is 5.8 ratio.

What about the “IC50, cytotoxicity on TF1-CLL1 cells” value [13] of the same binder?
Its value is 0.008 µg/mL.

What about the “relative MFI C6/C0” value [14] of the same binder?
The value was 13 ratio.

What about the “relative MFI C6/C0” value [15] of the same binder?
Its value is 14.7 ratio.

And the “relative MFI C6/C0” value [16]?
The value was 20.5 ratio.

Source: patent US20180355044A1 (CELLERANT THERAPEUTICS, published 2018)
